Test results from patent publication US20260184815A1 (published 2026).
Residue numbers refer to the chain shown, from its start.

B1: M27-H10 (Fab, V domains shown)
VH: EVQLLESGGGLVQPGGSLRLSCAASGFTFSAYQMAWVRQAPGKGLEWVSVIYSSGGYTDYADSVKGRFTISRDNSKNTLYLQMNSLRAEDTAVYYCARHNWNDGAFDIWGQGTMVTVSS
VL: DIQMTQSPSSLSASVGDRVTITCRASQSISNYLNWYQQKPGKAPKFLIYAASSLQSGVPSRFSGSGSGTDFTLSISSLQPEDFATYYCQQSYSTPQTFGQGTKVEMK
notes: HC as printed runs into CH1
B2: M28-A01 (Fab, V domains shown)
VH: EVQLLESGGGLVQPGGSLRLSCAASGFTFSWYAMHWVRQAPGKGLEWVSGIYSSGGYTKYADSVKGRFTISRDNSKNTLYLQMNSLRAEDTAVYYCARDLSNGDDVFDIWGQGTMVTVSS
VL: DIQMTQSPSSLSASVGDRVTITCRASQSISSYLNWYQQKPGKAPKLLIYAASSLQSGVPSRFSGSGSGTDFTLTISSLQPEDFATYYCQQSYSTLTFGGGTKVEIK
notes: HC as printed runs into CH1
B3: M28-C03 (Fab, V domains shown)
VH: EVQLLESGGGLVQPGGSLRLSCAASGFTFSYYQMGWVRQAPGKGLEWVSSIYPSGGMTDYADSVKGRFTISRDNSKNTLYLQMNSLRAEDTAVYYCTRGSPWGDDAFDIWGQGTMVTVSS
VL: DIQMTQSPSSLSASVGDRVTITCRASQSINFYLNWYQQKPGKAPKLLIYVASSLESGVPSRFSGSASGTEFTLTISSLQPEDFATYYCLQSYSAPYTFGQGTKVEIT
notes: HC as printed runs into CH1
B4: M28-D12 (Fab, V domains shown)
VH: EVQLLESGGGLVQPGGSLRLSCAASGFTFSWYTMHWVRQAPGKGLEWVSVIYPSGGPTSYADSVKGRFTISRDNSKNTLYLQMNSLRAEDTATYYCARDGSGSYLGFDYWGQGTLVTVSS
VL: DIQMTQSPSSLSASVGDRVTITCRASQSIATYLNWYQQKPGRAPKLLIYAASSLQSGVPSRFVGGGSGSGTHFTLTISSLQPEDFATYYCQQSYSTRETFGQGTKVEIK
notes: HC as printed runs into CH1
B5: M28-E01 (Fab, V domains shown)
VH: EVQLLESGGGLVQPGGSLRLSCAASGFTFSSYPMGWVRQAPGKGLEWVSRISSSGGMTIYADSVKGRFTISRDNSKNTLYLQMNSLRAEDTAVYYCARDDWNVGMDVWGQGTTVTVSS
VL: B1 VL with N31S, F46L, R61K, F71Y, S74T, S91T, S93T, Q96W, M106I
notes: HC as printed runs into CH1
B6: M28-E11 (Fab, V domains shown)
VH: EVQLLESGGGLVQPGGSLRLSCAASGFTFSLYDMTWVRQAPGKGLEWVSGISSSGGVTIYADSVKGRFTISRDNSKNTLYLQMNSLRAEDTAVYYCARTYYYDSSGYADAFDIWGQGTMVTVSS
VL: DIQMTQSPSSVSASVGDRVTINCRASQDISNWLAWYQQKPGKAPNLLIYAASSLQTGAPSRFSGSGSGTDFTLTISSLQPEDFGTYVCQQSYSLPWTFGLGTKVEVR
notes: HC as printed runs into CH1
B7: M28-F01 (Fab, V domains shown)
VH: EVQLLESGGGLVQPGGSLRLSCAASGFTFSVYLMHWVRQAPGKGLEWVSGISPSGGYTQYADSVKGRFTISRDNSKNTLYLQMNSLRAEDTAVYYCARPGGLDAFDIWGQGTMVTVSS
VL: B1 VL with S30N, N31T, F46V, Y49H, S53T, Q55E, S74T, Q96P, M106I
notes: HC as printed runs into CH1
B8: M28-F07 (Fab, V domains shown)
VH: EVQLLESGGGLVQPGGSLRLSCAASGFTFSDYTMYWVRQAPGKGLEWVSSIVPSGGHTLYADSVKGRFTISRDNSKNTLYLQMNSLRAEDTAVYYCAKDHLSSWYGGFFDYWGQGTLVTVSS
VL: DIQMTQSPSSVSASVGDRVTITCRASQGISSWLAWYQQKPGKAPKLLIYATSGLQSGVPSRFSGSGSGTDFTLTISSLQPEDFATYYCQQAKSFPLTFGGGTRVEIK
notes: HC as printed runs into CH1
B9: M29-C07 (Fab, V domains shown)
VH: EVQLLESGGGLVQPGGSLRLSCAASGFTFSGYDMMWVRQAPGKGLEWVSVISSSGGNTAYADSVKGRFTISRDNSKNTLYLQMNSLRAEDTAVYYCARESSGLYYFDYWGQGTLVTVSS
VL: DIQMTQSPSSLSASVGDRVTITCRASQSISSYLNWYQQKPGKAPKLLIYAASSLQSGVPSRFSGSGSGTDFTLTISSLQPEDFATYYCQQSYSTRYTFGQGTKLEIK
notes: HC as printed runs into CH1
B10: M29-D10 (Fab, V domains shown)
VH: EVQLLESGGGLVQPGGSLRLSCAASGFTFSWYPMYWVRQAPGKGLEWVSSIGSSGGPTPYADSVKGRFTISRDNSKNTLYLQMNSLRAEDTAVYYCARWADYGGSLDYWGQGTLVTVSS
VL: DIQMTQSPSSLSASVGDTVSITCRASQSITIYLNWYQHKPGKAPNLLIYGASNLHSGVPSRFSGSGSGTDFTLTISSLQPEDFATYYCQQSYDTPLTFGGGTKVEIK
notes: HC as printed runs into CH1
B11: M29-E02 (Fab, V domains shown)
VH: EVQLLESGGGLVQPGGSLRLSCAASGFTFSRYPMMWVRQAPGKGLEWVSVIYPSGGDTFYADSVKGRFTISRDNSKNTLYLQMNSLRAEDTAVYYCASGDDYLWEAAVYWGQGTLVTVSS
VL: QSVLTQPPSVSEAPRQRVTISCSGSSSNIGNNAVSWYQQLPGKAPKLLIYYDDLLPSGVSDRFSGSKSGTSASLAISGLRSEDEADYYCAAWDDSLNGFVFGTGTKVTVL
notes: HC as printed runs into CH1
B12: M29-G08 (Fab, V domains shown)
VH: EVQLLESGGGLVQPGGSLRLSCAASGFTFSYYHMWWVRQAPGKGLEWVSGISPSGGFTFYADSVKGRFTISRDNSKNTLYLQMNSLRAEDTAVYYCARDYYYDSSGYSPLGYWGQGTLVTVSS
VL: DIQMTQSPATLSASPGETVTLSCRASQNIGNDVAWYRQRPGQAPRLLIHHASTRAYGIPARLRGSGSATEFTLTITSLEPEDFAIYYCQQFYDWPAHTFALGTRLEIKR
notes: HC as printed runs into CH1
B13: M29-G10 (Fab, V domains shown)
VH: EVQLLESGGGLVQPGGSLRLSCAASGFTFSFYKMIWVRQAPGKGLEWVSSISSSGGSTQYADSVKGRFTISRDNSKNTLYLQMNSLRAEDTAVYYCARDRVDLGYLDYWGQGTLVTVSS
VL: DIQMTQSPSSLSSSVGDSATITCRASQSISIYLNWYQQKPGKAPKILIYGASQLESGVPSRFSGSGSGTDFTLTVSGLQPEDFATYWCQQSYNVPYTFGQGTKLEIK
notes: HC as printed runs into CH1
B14: M74-A07 (Fab, V domains shown)
VH: EVQLLESGGGLVQPGGSLRLSCAASGFTFSQYLMMWVRQAPGKGLEWVSSIYPSGGYTSYADSVKGRFTISRDNSKNTLYLQMNSLRAEDTAVYYCARVSTAVADNDYWGQGTLVTVSS
VL: DIQMTQSPSSLSASVRDRVTITCRTSQNINTYLNWYYQAPGRAPKLLIFGVSSLHRGVSSRFSGSGDGTEFTLTISSLQPEDIGTYFCQQSYSSPWTFGQGTKVEIK
notes: HC as printed runs into CH1
B15: M76-F02 (Fab, V domains shown)
VH: B7 VH with V31L, L33D, H35N, Y57Q, Q59M, P99Q, G100P, G101M, L102I, D103S
VL: DIQMTQSPSSLSASVGDRVTITCRASQTIDNYLHWYQQKPGKAPKVLIHDASSLQSGVPPRFSGSGSGTDFTLTISSLQPEDFATYYCQQSYDTPQYTFGQGTKLEIK
notes: HC as printed runs into CH1
B16: M76-G02 (Fab, V domains shown)
VH: EVQLLESGGGLVQPGGSLRLSCAASGFTFSLYAMWWVRQAPGKGLEWVSYISSSGGFTSYADSVKGRFTISRDNSKNTLYLQMNSLRAEDTAVYYCARYRVGVAATDYWGQGTLVTVSS
VL: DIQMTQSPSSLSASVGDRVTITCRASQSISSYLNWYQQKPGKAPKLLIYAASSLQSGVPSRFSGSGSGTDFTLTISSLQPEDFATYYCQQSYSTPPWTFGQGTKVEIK
notes: HC as printed runs into CH1
B17: M76-G06 (Fab, V domains shown)
VH: EVQLLESGGGLVQPGGSLRLSCAASGFTFSGYIMHWVRQAPGKGLEWVSWIYPSGGWTEYADSVKGRFTISRDNSKNTLYLQMNSLRAEDTAVYYCARDAPGVGAIDYWGQGTLVTVSS
VL: B1 VL with G16R, N31T, K42E, F46L, I48V, Y49F, Q96H, T102A, M106I
notes: HC as printed runs into CH1
B18: M76-H02 (Fab, V domains shown)
VH: EVQLLESGGGLVQPGGSLRLSCAASGFTFSMYWMQWVRQAPGKGLEWVSYIYPSGGPTKYADSVKGRFTISRDNSKNTLYLQMNSLRAEDTAVYYCARPSGSYGDAFDIWGQGTMVTVSS
VL: DIQMTQSPSSLSASEGDRVTITCRASQDISVYLNWYQMKSGKAPKLLIYGGASLQSGVPARFSGSGYGTDFTLTITDLRPEDFATYYCQQSYSLPFTFGGGTKVEIK
notes: HC as printed runs into CH1
B19: M77-C07 (Fab, V domains shown)
VH: B17 VH with G31L, H35G, W50G, W57F, E59M, D99E, A100S, P101S, G104A, I106P
VL: B1 VL with S10T, S28N, N31S, F46L, S74T, Y87S, Q96R, M106I
notes: HC as printed runs into CH1
B20: M77-H04 (Fab, V domains shown)
VH: EVQLLESGGGLVQPGGSLRLSCAASGFTFSYYTMIWVRQAPGKGLEWVSGIRSSGGGTRYADSVKGRFTISRDNSKNTLYLQMNSLRAEDTAVYYCAKDGSRYSYGSIYYYYGMDAWGQGTTVTVSS
VL: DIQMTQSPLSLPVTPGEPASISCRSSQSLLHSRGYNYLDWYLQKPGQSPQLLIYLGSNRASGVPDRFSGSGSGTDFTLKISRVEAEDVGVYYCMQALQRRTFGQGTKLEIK
notes: HC as printed runs into CH1
B21: M6-D09 (Fab, V domains shown)
VH: EVQLLESGGGLVQPGGSLRLSCAASGFTFSFYYMVWVRQAPGKGLEWVSVIYPSGGITVYADSVKGRFTISRDNSKNTLYLQMNSLRAEDTAVYYCARDKWAVMPPYYYYAMDVWGQGTTVTVSS
VL: DIQMTQSPSSLSASVGDRVTITCRASQSIRNYLNWYQQKPGKAPNLLIYAASTLQSGVPARFSGSGSGTDFTLTISSLQPEDFATYYCQQLSGYPHTFGQGTKLEIK
notes: HC as printed runs into CH1; also called M06-D09; 559A-M0006-D09
B22: M7-B04 (Fab, V domains shown)
VH: EVQLLESGGGLVQPGGSLRLSCAASGFTFSWYSMVWVRQAPGKGLEWVSSISPSGGLTNYADSVKGRFTISRDNSKNTLYLQMNSLRAEDTAVYYCARHTAARPFYYYYMDVWGKGTTVTVSS
VL: QSALTQPASVSGSPGQSITISCTGTNSDVGNYNLVSWYQQHPGEAPKLLIYEVNKRPSGVSNRFSGSKSGNTASLTISGLQAEDEADYLCCSYAGNRNFYVFGAGTKVTVL
notes: HC as printed runs into CH1
B23: M7-E07 (Fab, V domains shown)
VH: EVQLLESGGGLVQPGGSLRLSCAASGFTFSWYLMIWVRQAPGKGLEWVSYIYPSGGFTYYADSVKGRFTISRDNSKNTLYLQMNSLRAEDMAVYYCARTEGPLSWGYGMDVWGQGTTVTVSS
VL: not shown
notes: HC as printed runs into CH1

Target: T1, human plasma kallikrein (human, UniProt P03952 20-390; P03952 391-638)
T1 construct: also called pKal; Human pKal
Experiment: ELISA, biotinylated pKal signal over streptavidin background
Excerpt: Abbreviations used: “T/B” is the ELISA signal obtained using of the “target” (biotinylated plasma kallikrein) divided by the ELISA signal of the “background” (streptavidin); both of which were coated on microtiter plates, “nd” is not determined. The symbol “q” refers to the amber suppressible stop codon (TAG), which is translated as glutamine (Q) in strains of E. coli such as the TG1 cells that were used to express the Fab fragments.

T1 sequence (P03952 20-390, chain 1 of 2): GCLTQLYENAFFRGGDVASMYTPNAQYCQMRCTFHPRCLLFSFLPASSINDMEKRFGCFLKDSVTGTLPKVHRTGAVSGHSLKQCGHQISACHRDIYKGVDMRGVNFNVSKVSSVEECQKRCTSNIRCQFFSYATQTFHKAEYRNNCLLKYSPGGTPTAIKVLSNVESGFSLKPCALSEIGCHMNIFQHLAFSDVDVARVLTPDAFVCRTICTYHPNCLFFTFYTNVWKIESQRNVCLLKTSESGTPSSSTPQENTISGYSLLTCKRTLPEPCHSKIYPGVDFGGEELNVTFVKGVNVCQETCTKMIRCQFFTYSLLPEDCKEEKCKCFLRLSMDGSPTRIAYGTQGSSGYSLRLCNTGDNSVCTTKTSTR
T1 sequence (P03952 391-638, chain 2 of 2): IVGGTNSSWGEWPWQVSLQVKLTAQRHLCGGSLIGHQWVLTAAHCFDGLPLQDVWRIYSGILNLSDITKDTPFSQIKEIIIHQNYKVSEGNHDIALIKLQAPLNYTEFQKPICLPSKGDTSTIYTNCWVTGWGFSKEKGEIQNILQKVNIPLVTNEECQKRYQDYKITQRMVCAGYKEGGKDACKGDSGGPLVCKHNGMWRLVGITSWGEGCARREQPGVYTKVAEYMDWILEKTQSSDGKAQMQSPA

Binder | ELISA (T/B)
B1 | 12.4
B2 | 19
B3 | 2.2
B4 | 41.6
B5 | 41
B6 | 29.3
B7 | 1.5
B8 | 33
B9 | 5.2
B10 | 23.6
B11 | 2
B12 | 40.4
B13 | 16.4
B14 | 8.6
B15 | 6.4
B16 | 10.3
B17 | 11.8
B18 | 13.4
B19 | 16.1
B20 | 7.6
B21 | 39.9
B22 | 4.1
B23 | 45.7
